This is an account of results in patent publication US20210292396A1.

Holding throughout (test): cell-based or functional assay
Test [1] concerns the target Env of HIV isolate 3817.v2.c59 (clade CD) (HIV).
The target in test [2] is Env of HIV isolate CNE53 (clade C in Table 7) (HIV).
The target of test [3] is Env of HIV isolate MW965.26 (clade C) (HIV).
The target of test [4] is Env of HIV isolate UG024.2 (clade D) (HIV).
The target in test [5] is Env of HIV isolate ZM53.12 (clade C) (HIV).
The target of test [6] is HIV Env of isolate 288.38 (HIV).
Test [7] has as its target HIV Env of isolate 3016.v5.c45 (HIV).
For test [8], the target named is HIV Env of isolate 3168.v4.c10 (HIV).
Test [9] has as its target HIV Env of isolate 6322.v4.c1 (HIV).
Test [10] has as its target HIV Env of isolate CNE53 (HIV).
Test [11] addresses HIV Env of isolate DU151.02 (HIV).
Test [12] has as its target HIV Env of isolate 0815.v3.c3 (HIV).
Test [13] has as its target HIV Env of isolate 1006_11_C3_1601 (HIV).
Test [14] addresses HIV Env of isolate 1054_07_TC4_1499 (HIV).
The target in test [15] is HIV Env of isolate 191084_B7-19 (HIV).
The target of test [16] is HIV Env of isolate 235-47 (HIV).
The target in test [17] is HIV Env of isolate 246F_C1G (HIV).
Test [18] addresses HIV Env of isolate 249M_B10 (HIV).
Test [19] addresses HIV Env of isolate 6240_08_TA5_4622 (HIV).
Test [20] addresses HIV Env of isolate 6480.v4.c25 (HIV).
Test [21] has as its target HIV Env of isolate 6535.3 (HIV).
In test [22] the target is HIV Env of isolate 6540.v4.c1 (HIV).
Test [23] has as its target HIV Env of isolate 7030102001E5(Rev-) (HIV).
Test [24] addresses HIV Env of isolate 928-28 (HIV).
For test [25], the target named is HIV Env of isolate AC10.0.29 (HIV).
The target of test [26] is HIV Env of isolate BJOX009000.02.4 (HIV).
Test [27] has as its target HIV Env of isolate BJOX028000.10.3 (HIV).
Test [28] deals with HIV Env of isolate CAAN5342.A2 (HIV).
Test [29] deals with HIV Env of isolate CAP210.2.00.E8 (HIV).
Test [30] concerns the target HIV Env of isolate CNE17 (HIV).
The target of test [31] is HIV Env of isolate CNE5 (HIV).
Test [32] deals with HIV Env of isolate CNE52 (HIV).
Test [33] deals with HIV Env of isolate Ce2060_G9 (HIV).
Test [34] concerns the target HIV Env of isolate Du172.17 (HIV).
Test [35] deals with HIV Env of isolate HIV-0013095-2.11 (HIV).
The target of test [36] is HIV Env of isolate HIV-16055-2.3 (HIV).
In test [37] the target is HIV Env of isolate P0402_C2_11 (HIV).
Test [38] has as its target HIV Env of isolate P1981_C5_3 (HIV).
The target in test [39] is HIV Env of isolate PVO.4 (HIV).
Test [40] addresses HIV Env of isolate Q23.17 (HIV).
In test [41] the target is HIV Env of isolate RHPA4259.7 (HIV).
The target in test [42] is HIV Env of isolate SC05_8C11_2344 (HIV).
The target in test [43] is HIV Env of isolate T250-4 (HIV).
The target of test [44] is HIV Env of isolate T255-34 (HIV).
Test [45] concerns the target HIV Env of isolate T278-50 (HIV).
The target in test [46] is HIV Env of isolate TRO.11 (HIV).
For test [47], the target named is HIV Env of isolate WEAU_d15_410_5017 (HIV).
Test [48] concerns the target HIV Env of isolate X1254_c3 (HIV).
Test [49] concerns the target HIV Env of isolate X2088_c9 (HIV).
In test [50] the target is HIV Env of isolate ZM135M.PL10a (HIV).
For test [51], the target named is HIV Env of isolate ZM247v1(Rev-) (HIV).
The target of test [52] is HIV Env of isolate ZM53M.PB12 (HIV).

Changes are numbered by the printed parent chain. Values joined by “and” are separate entries in the source; they are usually repeats but may differ in a detail not shown here. Identical values can stand only once.

B1: ePGT121.18 (ePGT121.18.H1 VH and ePGT121.17.L1 VL) (antibody, V domains shown)
VH: QMQLQESGPGLVKPGETLSLTCSVSGASISSSYWSWLRETPGKGLEWIGYTHHSGDTNYAPSLKSRVHLGLHPSKNQVSLSLTSVTAADTAVYYCARTLHGRRIYGVVAFNEYYTYFYWPTWGKGTQVTVSS
VL: SDISVAPGETVRITCGGESIGSRAVQWYQHRPGQAPRLIIYNNQDRPPGIPERFSGSPDIDFGTTATLTISNVEAGDEATYYCHIWDSRRPTNWELGPGTTLTVL
As for B1, the IC50, pseudovirus neutralization in [1] stood at 546 ng/mL; in test [2], 3 ng/mL; in [3], 3 ng/mL; in [4], 2360 ng/mL; in [5], 3 ng/mL. The IC80, pseudovirus neutralization (M1) in test [6] is 2 ng/mL; in test [7], more than 50000 ng/mL; in test [8] it was 34 ng/mL; in test [9], more than 50000 ng/mL; in [10], 6 ng/mL; in test [11], 3 ng/mL. In addition, the IC80, pseudovirus neutralization (M2) in [6] is 2 ng/mL; in test [7], more than 50000 ng/mL; in test [8], 45 ng/mL; in test [9] it was more than 50000 ng/mL; in [10], 9 ng/mL; in [11], 3 ng/mL.

B2: ePGT121.15.H2.L1 (antibody, V domains shown)
VH: B1 VH with Y113W, Y114F, P120E, T121V
VL: B1 VL with T14S, P32A, R37K, S71T, E95V, L96F, P98G
For B2, the neutralization (Table 6 value) in [12] is 0.000394; in test [13] it was 0.00175; in [14], 0.00114; in [15], 0.00196; in test [16], 0.00466; in test [17], 0.0024. Further, the neutralization (Table 6 value) turned out to be 0.00271 in test [18]; 0.004 in test [19]; 4.5e-05 in test [20]; 0.00104 in test [21]; 0.652 in test [22]; 0.00197 in [23]. For the same molecule, the neutralization (Table 6 value) was found to be 0.0488 in test [24]; 0.00196 in [25]; 0.0259 in test [26]; 0.00577 in test [27]; 0.00112 in [28]; 0.0207 in test [29]. For the same molecule, the neutralization (Table 6 value) in test [30] amounted to 0.00577; in test [31], 0.743; in test [32], 0.0469; in test [10] it was 0.00162; in test [33], 0.0132; in [34], 0.000836. Also, the neutralization (Table 6 value) in test [35] turned out to be 0.698; in test [36] it was 0.698; in test [37], 0.00193; in test [38] it was 0.000449; in [39] it was 0.00346; in [40] it was 0.00106. Besides, the neutralization (Table 6 value) in [41] is 0.00156; in test [42] it was 0.00664; in test [43], 0.00084; in test [44], 0.00375 and 0.00245; in test [45], 0.0127; in test [46] it was 0.00115. Further, the neutralization (Table 6 value) in test [47] was 0.00168; in test [48] it was 0.00235; in test [49], 0.000985; in test [50], 0.122; in [51], 0.000909; in test [52] it was 0.00177.

B3: ePGT121.15 (ePGT121.15.H6 VH and ePGT121.15.L1 VL) (antibody, V domains shown)
VH: B1 VH with Y113F, Y114F, P120E, T121V
VL: B1 VL with T14S, P32A, R37K, S71T, E95V, L96F, P98G
Consider B3, for which the IC50, pseudovirus neutralization in test [1] was 984 ng/mL; in [2], 7 ng/mL; in [3], 4 ng/mL; in test [4], 516 ng/mL; in test [5] it was 8 ng/mL. Further, the IC80, pseudovirus neutralization in test [6] is 5 ng/mL; in test [7], more than 50000 ng/mL; in test [8], 75 ng/mL; in test [9], more than 50000 ng/mL; in test [10], 15 ng/mL; in test [11], 4 ng/mL.

B4: ePGT121.18.17 (ePGT121.18.H17 VH and ePGT121.17.L1 VL) (antibody, V domains shown)
VH: B1 VH with H68T, L69I, H72D
VL: B1 VL
For the molecule B4, the IC50, pseudovirus neutralization in test [1] turned out to be 4750 ng/mL; in test [2], 6 ng/mL; in test [3], 4 ng/mL; in [4], 429 ng/mL; in [5], 15 ng/mL. For the same molecule, the IC80, pseudovirus neutralization in test [6] was 3 ng/mL; in test [7], more than 50000 ng/mL; in [8], 171 ng/mL; in [9] it was more than 50000 ng/mL; in test [10], 19 ng/mL; in test [11] it was 5 ng/mL.
